Test results published in the supplement of paper PMC9112550, “Optimization of the antimicrobial peptide Bac7 by deep mutational scanning” (BMC Biology, 2022).

What follows are sequences tested on Escherichia coli TOP10 (assay: shrunken log2 fold change of peptide-encoding DNA abundance (4.5 h post-induction vs induction); higher = less antimicrobial activity (less host growth inhibition)). Conditions: time post-induction: 4.5 h; library: site-saturation at positions 5, 18, 19, 20.
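Also: peptides expressed intracellularly from a pBAD plasmid library in pooled LB shake-flask culture, induced with 0.3% L-arabinose, DNA abundance read by NGS, three biological replicates, DESeq2 with apeglm shrinkage.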

| Sequence | shrunken log2 fold change |
| --- | --- |
| RRIRNRPPRLPRPRPRPTCTPRP | -0.0629 |
| RRIRNRPPRLPRPRPRPTDDPRP | 0.0875 |
| RRIRNRPPRLPRPRPRPTDEPRP | 0.0528 |
| RRIRNRPPRLPRPRPRPTDMPRP | -0.0588 |
| RRIRNRPPRLPRPRPRPTDWPRP | 0.328 |
| RRIRNRPPRLPRPRPRPTEKPRP | -0.0107 |
| RRIRNRPPRLPRPRPRPTEWPRP | 0.0839 |
| RRIRNRPPRLPRPRPRPTFMPRP | -0.401 |
| RRIRNRPPRLPRPRPRPTHYPRP | -0.109 |
| RRIRNRPPRLPRPRPRPTIFPRP | -0.248 |
| RRIRNRPPRLPRPRPRPTIIPRP | -0.905 |
| RRIRNRPPRLPRPRPRPTLAPRP | 0.556 |
| RRIRNRPPRLPRPRPRPTLVPRP | -0.0435 |
| RRIRNRPPRLPRPRPRPTNSPRP | -0.279 |
| RRIRNRPPRLPRPRPRPTNTPRP | -0.34 |
| RRIRNRPPRLPRPRPRPTQWPRP | 0.425 |
| RRIRNRPPRLPRPRPRPTRMPRP | 0.245 |
| RRIRNRPPRLPRPRPRPTSHPRP | -0.0916 |
| RRIRNRPPRLPRPRPRPTSQPRP | 0.187 |
| RRIRNRPPRLPRPRPRPVACPRP | -0.0504 |
| RRIRNRPPRLPRPRPRPVAFPRP | -0.119 |
| RRIRNRPPRLPRPRPRPVASPRP | -0.0843 |

| Sequence | shrunken log2 fold change |
| --- | --- |
| RRIRNRPPRLPRPRPRPVCPPRP | -0.14 |
| RRIRNRPPRLPRPRPRPVCYPRP | -0.21 |
| RRIRNRPPRLPRPRPRPVFSPRP | -0.192 |
| RRIRNRPPRLPRPRPRPVHDPRP | 0.068 |
| RRIRNRPPRLPRPRPRPVILPRP | -0.61 |
| RRIRNRPPRLPRPRPRPVMIPRP | -0.311 |
| RRIRNRPPRLPRPRPRPVNDPRP | -0.15 |
| RRIRNRPPRLPRPRPRPVNFPRP | -0.157 |
| RRIRNRPPRLPRPRPRPVQFPRP | -0.124 |
| RRIRNRPPRLPRPRPRPVRCPRP | 0.0872 |
| RRIRNRPPRLPRPRPRPVRFPRP | 0.0789 |
| RRIRNRPPRLPRPRPRPVRPPRP | 0.555 |
| RRIRNRPPRLPRPRPRPVRRPRP | 0.112 |
| RRIRNRPPRLPRPRPRPVSSPRP | -0.00623 |
| RRIRNRPPRLPRPRPRPVVQPRP | 0.0488 |
| RRIRNRPPRLPRPRPRPVWNPRP | -0.0723 |
| RRIRNRPPRLPRPRPRPVWYPRP | -0.326 |
| RRIRNRPPRLPRPRPRPVYCPRP | -0.688 |
| RRIRNRPPRLPRPRPRPVYNPRP | -0.381 |
| RRIRNRPPRLPRPRPRPVYVPRP | -0.284 |
| RRIRNRPPRLPRPRPRPWAGPRP | 0.163 |
| RRIRNRPPRLPRPRPRPWCFPRP | -0.472 |

| Sequence | shrunken log2 fold change |
| --- | --- |
| RRIRNRPPRLPRPRPRPWCNPRP | -0.507 |
| RRIRNRPPRLPRPRPRPWDNPRP | -0.0545 |
| RRIRNRPPRLPRPRPRPWEAPRP | -0.173 |
| RRIRNRPPRLPRPRPRPWFAPRP | 0.801 |
| RRIRNRPPRLPRPRPRPWGLPRP | -0.123 |
| RRIRNRPPRLPRPRPRPWGPPRP | -0.37 |
| RRIRNRPPRLPRPRPRPWHVPRP | 0.0188 |
| RRIRNRPPRLPRPRPRPWICPRP | -0.192 |
| RRIRNRPPRLPRPRPRPWKHPRP | -0.347 |
| RRIRNRPPRLPRPRPRPWKRPRP | -0.0326 |
| RRIRNRPPRLPRPRPRPWLGPRP | 0.0222 |
| RRIRNRPPRLPRPRPRPWPDPRP | 0.646 |
| RRIRNRPPRLPRPRPRPWQIPRP | -0.102 |
| RRIRNRPPRLPRPRPRPWRNPRP | 0.0352 |
| RRIRNRPPRLPRPRPRPWSPPRP | -0.245 |
| RRIRNRPPRLPRPRPRPWTFPRP | -0.0614 |
| RRIRNRPPRLPRPRPRPWVIPRP | -0.552 |
| RRIRNRPPRLPRPRPRPWVWPRP | -0.115 |
| RRIRNRPPRLPRPRPRPWWVPRP | -0.226 |
| RRIRNRPPRLPRPRPRPWYKPRP | -0.00149 |
| RRIRNRPPRLPRPRPRPYAIPRP | -0.105 |
| RRIRNRPPRLPRPRPRPYCEPRP | -0.469 |

| Sequence | shrunken log2 fold change |
| --- | --- |
| RRIRNRPPRLPRPRPRPYDCPRP | -0.109 |
| RRIRNRPPRLPRPRPRPYELPRP | -0.0122 |
| RRIRNRPPRLPRPRPRPYEQPRP | -0.54 |
| RRIRNRPPRLPRPRPRPYGDPRP | -1.01 |
| RRIRNRPPRLPRPRPRPYGQPRP | -0.124 |
| RRIRNRPPRLPRPRPRPYIQPRP | -0.244 |
| RRIRNRPPRLPRPRPRPYKRPRP | -1.27 |
| RRIRNRPPRLPRPRPRPYLDPRP | -0.181 |
| RRIRNRPPRLPRPRPRPYLMPRP | -0.287 |
| RRIRNRPPRLPRPRPRPYNRPRP | 0.00748 |
| RRIRNRPPRLPRPRPRPYNVPRP | -0.526 |
| RRIRNRPPRLPRPRPRPYPNPRP | -0.3 |
| RRIRNRPPRLPRPRPRPYRHPRP | -0.01 |
| RRIRNRPPRLPRPRPRPYRLPRP | -0.00674 |
| RRIRNRPPRLPRPRPRPYSRPRP | -0.00947 |
| RRIRNRPPRLPRPRPRPYVHPRP | -0.253 |
| RRIRNRPPRLPRPRPRPYVSPRP | -0.0285 |
| RRIRNRPPRLPRPRPRPYWIPRP | -1.71 |
| RRIRPRPPRLPRPRPRPACIPRP | -0.25 |
| RRIRPRPPRLPRPRPRPADHPRP | -0.015 |
| RRIRPRPPRLPRPRPRPADVPRP | 0.0118 |
| RRIRPRPPRLPRPRPRPAECPRP | -0.223 |

| Sequence | shrunken log2 fold change |
| --- | --- |
| RRIRPRPPRLPRPRPRPAELPRP | 0.335 |
| RRIRPRPPRLPRPRPRPAFVPRP | 0.149 |
| RRIRPRPPRLPRPRPRPAGKPRP | -0.0291 |
| RRIRPRPPRLPRPRPRPAGSPRP | 0.206 |
| RRIRPRPPRLPRPRPRPAHGPRP | 0.708 |
| RRIRPRPPRLPRPRPRPAIEPRP | -0.0623 |
| RRIRPRPPRLPRPRPRPAKIPRP | 0.0125 |
| RRIRPRPPRLPRPRPRPAKNPRP | 0.235 |
| RRIRPRPPRLPRPRPRPAMCPRP | -0.0389 |
| RRIRPRPPRLPRPRPRPAMDPRP | 0.0161 |
| RRIRPRPPRLPRPRPRPAMMPRP | -0.214 |
| RRIRPRPPRLPRPRPRPANQPRP | 0.0414 |
| RRIRPRPPRLPRPRPRPAQWPRP | 0.384 |
| RRIRPRPPRLPRPRPRPARLPRP | 0.00523 |
| RRIRPRPPRLPRPRPRPARWPRP | 0.44 |
| RRIRPRPPRLPRPRPRPASKPRP | 0.022 |
| RRIRPRPPRLPRPRPRPASQPRP | 0.0417 |
| RRIRPRPPRLPRPRPRPATNPRP | -0.105 |
| RRIRPRPPRLPRPRPRPAWQPRP | 0.277 |
| RRIRPRPPRLPRPRPRPAYMPRP | -0.231 |
| RRIRPRPPRLPRPRPRPCAFPRP | -0.148 |
